Results as given in article PMC2120133 (The Journal of Cell Biology, 1994).

Target: Gal4 DNA-binding domain-Nup1p carboxy-terminal fusion (pSWB11) (yeast, UniProt P20676 655-1076)
Experiment: two-hybrid

Sequence of Gal4 DNA-binding domain-Nup1p carboxy-terminal fusion (pSWB11) (P20676 655-1076): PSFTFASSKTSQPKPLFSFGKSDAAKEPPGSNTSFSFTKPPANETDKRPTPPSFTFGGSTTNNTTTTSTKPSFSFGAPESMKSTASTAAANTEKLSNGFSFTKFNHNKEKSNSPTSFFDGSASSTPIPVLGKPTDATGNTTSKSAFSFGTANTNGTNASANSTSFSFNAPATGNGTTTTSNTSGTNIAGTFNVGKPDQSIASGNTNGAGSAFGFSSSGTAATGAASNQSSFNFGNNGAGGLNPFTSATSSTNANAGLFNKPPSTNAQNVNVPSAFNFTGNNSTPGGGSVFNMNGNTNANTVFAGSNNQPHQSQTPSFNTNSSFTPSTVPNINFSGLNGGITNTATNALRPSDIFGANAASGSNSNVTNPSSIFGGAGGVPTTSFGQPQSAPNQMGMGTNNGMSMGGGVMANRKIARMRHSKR

fold increase in beta-galactosidase activity: > 160 fold
B1: Gal4 activation domain-Srp1p fusion (pSWB17) (domain or fragment, yeast, UniProt Q02821 30-542, looked up)
chain: DELRRRRDTQQVELRKAKRDEALAKRRNFIPPTDGADSDEEDESSVSADQQFYSQLQQELPQMTQQLNSDDMQEQLSATVKFRQILSREHRPPIDVVIQAGVVPRLVEFMRENQPEMLQLEAAWALTNIASGTSAQTKVVVDADAVPLFIQLLYTGSVEVKEQAIWALGNVAGDSTDYRDYVLQCNAMEPILGLFNSNKPSLIRTATWTLSNLCRGKKPQPDWSVVSQALPTLAKLIYSMDTETLVDACWAISYLSDGPQEAIQAVIDVRIPKRLVELLSHESTLVQTPALRAVGNIVTGNDLQTQVVINAGVLPALRLLLSSPKENIKKEACWTISNITAGNTEQIQAVIDANLIPPLVKLLEVAEYKTKKEACWAISNASSGGLQRPDIIRYLVSQGCIKPLCDLLEIADNRIIEVTLDALENILKMGEADKEARGLNINENADFIEKAGGMEKIFNCQQNENDKIYEKAYKIIETYFGEEEDAVDETMAPQNAGNTFGFGSNVNQQFNFN
